{"source": "paper doi:10.1101/2024.07.25.605091", "key": {"[1]": {"target": "Macaca mulatta TLR7 extracellular domain (Macaca mulatta)", "assay": "cryo-EM structure"}, "[2]": {"target": "Macaca mulatta TLR7 extracellular domain (Macaca mulatta)", "assay": "cryo-EM structure", "remark": "listed apart in the source"}, "[3]": {"target": "T1, TLR8 extracellular domain (Homo sapiens, UniProt Q9NR97 27-827)", "T1 sequence": "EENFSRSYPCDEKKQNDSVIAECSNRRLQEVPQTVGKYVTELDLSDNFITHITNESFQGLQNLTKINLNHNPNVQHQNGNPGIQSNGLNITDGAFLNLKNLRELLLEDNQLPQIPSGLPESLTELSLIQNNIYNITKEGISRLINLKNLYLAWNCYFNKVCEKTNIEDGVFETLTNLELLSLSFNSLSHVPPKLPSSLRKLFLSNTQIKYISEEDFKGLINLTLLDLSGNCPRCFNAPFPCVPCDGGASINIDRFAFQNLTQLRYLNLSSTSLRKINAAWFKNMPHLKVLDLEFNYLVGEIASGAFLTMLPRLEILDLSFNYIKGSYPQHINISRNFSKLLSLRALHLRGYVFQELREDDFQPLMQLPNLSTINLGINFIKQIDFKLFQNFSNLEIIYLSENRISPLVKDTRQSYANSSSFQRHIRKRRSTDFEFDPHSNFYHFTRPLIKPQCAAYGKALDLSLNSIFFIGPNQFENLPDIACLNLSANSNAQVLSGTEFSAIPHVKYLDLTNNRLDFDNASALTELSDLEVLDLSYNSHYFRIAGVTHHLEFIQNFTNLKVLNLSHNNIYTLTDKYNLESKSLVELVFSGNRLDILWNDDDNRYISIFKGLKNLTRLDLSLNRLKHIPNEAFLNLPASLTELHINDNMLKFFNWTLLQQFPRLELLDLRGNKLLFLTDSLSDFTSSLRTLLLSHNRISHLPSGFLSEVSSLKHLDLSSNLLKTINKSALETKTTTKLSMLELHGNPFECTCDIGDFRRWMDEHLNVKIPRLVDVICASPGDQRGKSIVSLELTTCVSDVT", "assay": "SPR"}, "[4]": {"target": "T1, TLR8 extracellular domain", "assay": "SPR", "remark": "listed apart in the source"}}, "note": "Like-named read-outs stand apart in the source and are kept apart here."}
{"molecule": "Macaca mulatta TLR7 extracellular domain (receptor)", "values": [{"measurement": "stoichiometry N", "setting": "[1]", "value": 2}, {"measurement": "stoichiometry N", "setting": "[2]", "value": 2}]}
{"molecule": "GAG (XNA, 2'-OMe at G1 and A2; DNA G3; phosphorothioate linkages, stereorandom)", "note": "[GAG-v1 (mGmAdG)]", "values": [{"measurement": "Kd", "setting": "[3]", "value": 4, "unit": "µM"}]}
{"molecule": "GCC (XNA, 2'-OMe at G1; DNA C2 and C3; phosphorothioate linkages, stereorandom)", "note": "[GCC-v4 (mGdCdC)]", "values": [{"measurement": "Kd", "setting": "[4]", "value": 8, "unit": "µM"}]}
